Assay results reported in patent US20210196796A1 (SYNTHEKINE, published 2021).
Positions count from the first letter of the chain named.

T1: orthogonal hCD122 receptor (hoRb), hCD122 with H133D and Y134F (human, UniProt P14784 27-550)
T1 sequence: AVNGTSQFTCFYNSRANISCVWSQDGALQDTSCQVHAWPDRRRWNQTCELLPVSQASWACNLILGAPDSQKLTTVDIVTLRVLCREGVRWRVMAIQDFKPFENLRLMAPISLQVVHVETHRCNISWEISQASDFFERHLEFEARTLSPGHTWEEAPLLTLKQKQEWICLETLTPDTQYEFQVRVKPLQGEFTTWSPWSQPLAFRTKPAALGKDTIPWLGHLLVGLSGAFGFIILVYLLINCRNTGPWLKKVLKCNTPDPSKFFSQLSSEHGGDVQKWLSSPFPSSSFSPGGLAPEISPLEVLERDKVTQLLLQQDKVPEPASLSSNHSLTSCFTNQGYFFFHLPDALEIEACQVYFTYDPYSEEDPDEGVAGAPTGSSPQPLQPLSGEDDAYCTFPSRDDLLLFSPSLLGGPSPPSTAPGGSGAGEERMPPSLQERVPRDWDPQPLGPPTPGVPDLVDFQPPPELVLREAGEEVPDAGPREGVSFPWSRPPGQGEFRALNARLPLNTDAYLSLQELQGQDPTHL

B1: ΔA1, SQVLKA (ligand)
chain: PTSSSTKKTQLQLSQLLVLLKAILNGINNYKNPKLTRMLTFKFYMPKKATELKHLQCLEEELKPLEEVLNLAQSKNFHLRPRDLISNINVIVLELKGSETTFMCEYADETATIVEFLNRWITFCQSIISTLT
B2: ΔP2, SQVLKA (ligand)
chain: B1 chain with P1A
B3: ΔT7, SQVLKA (ligand)
chain: B1 chain with P1A, T2P, S3T, T6S
B4: SQVLEA (ligand)
chain: APTSSSTKKTQLQLSQLLVLLEAILNGINNYKNPKLTRMLTFKFYMPKKATELKHLQCLEEELKPLEEVLNLAQSKNFHLRPRDLISNINVIVLELKGSETTFMCEYADETATIVEFLNRWITFCQSIISTLT
B5: SQVLGA (ligand)
chain: B4 chain with E22G
B6: SQVLFA (Ref# 073) (ligand)
chain: B4 chain with E22F
B7: SQVLFA (Ref# 079) (ligand)
chain: B4 chain with E22F

Molecular target: T1, orthogonal hCD122 receptor (hoRb), …
Assay: cell-based or functional assay
Wherever Relative Proliferation Fold Change 3F8 1:10 is given: reference of the scale not given here.
Wherever Relative Proliferation Fold Change 3F8 1:2 is given: reference of the scale not given here.
Wherever Relative Proliferation Fold Change 3F8 1:50 is given: reference of the scale not given here.
Wherever Relative Proliferation Fold Change NKL 1:10 is given: reference of the scale not given here.
Wherever Relative Proliferation Fold Change NKL 1:2 is given: reference of the scale not given here.
Wherever Relative Proliferation Fold Change NKL 1:50 is given: reference of the scale not given here.

| Binder | 3F8 Ortho Proliferation Signal 1:2 | 3F8 Ortho Proliferation Signal 1:10 | 3F8 Ortho Proliferation Signal 1:50 | Relative Proliferation Fold Change 3F8 1:2 | Relative Proliferation Fold Change 3F8 1:10 | Relative Proliferation Fold Change 3F8 1:50 |
| --- | --- | --- | --- | --- | --- | --- |
| B1 | 32400 cts/min | 21900 cts/min | 8150 cts/min | 171 fold | 22.6 fold | 11.7 fold |
| B2 | 40100 cts/min | 31000 cts/min | 12400 cts/min | 34.2 fold | 29.4 fold | 10.5 fold |
| B3 | 40800 cts/min | 29200 cts/min | 10700 cts/min | 49.1 fold | 21.7 fold | 15.3 fold |
| B4 | 33400 cts/min | 31600 cts/min | 12600 cts/min | 32.9 fold | 28.2 fold | 13.1 fold |
| B5 | 18000 cts/min | 9170 cts/min | 2300 cts/min | 74.5 fold | 15.6 fold | 5.06 fold |

Molecular target: T1, orthogonal hCD122 receptor (hoRb), …
Assay: cell-based or functional assay
Remark: another data set of the same source

| Binder | NKL Ortho Proliferation Signal 1:2 | NKL Ortho Proliferation Signal 1:10 | NKL Ortho Proliferation Signal 1:50 | Relative Proliferation Fold Change NKL 1:2 | Relative Proliferation Fold Change NKL 1:10 | Relative Proliferation Fold Change NKL 1:50 |
| --- | --- | --- | --- | --- | --- | --- |
| B1 | 33400 | 27700 | 13800 | 2.96 fold | 1.81 fold | 0.96 fold |
| B2 | 64000 | 61900 | 27800 | 4.41 fold | 3.8 fold | 1.77 fold |
| B3 | 55400 | 51900 | 25300 | 3.65 fold | 3.32 fold | 1.76 fold |
| B4 | 21100 | 18200 | 9480 | 1.78 fold | 1.19 fold | 0.67 fold |
| B5 | 13500 | 11700 | 8730 | 1.1 fold | 0.83 fold | 0.6 fold |
| B6 | – | – | – | 1.23 fold | – | – |
| B7 | – | – | – | 1.23 fold | – | – |
